In the supplement of paper PMC10126150:
± gives the standard deviation of the averaged measurements.

tested on: ATP; experiment: switch fluorescence ratio, 500 uM ATP over buffer (Cy3 cluster intensity, sum of 5 cycles each) (fold (ratio)); higher = stronger signal-on switching upon ATP binding; sequences stand for … in TCGTCGGCAGCGTCAGATGTGTATAAGAGACAGTTTTTTTTTTTTTTTTTTTTTTTTT…TC; details: aptamer strand: ATP DNA aptamer (quencher-CACCTGGGGGAGTATTGCGGAGGAAGG + anchor), 100 nM annealed; ATP concentration: 500 uM
Method in brief: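 The fluorescence ratio divides summed target-cycle Cy3 intensity by summed buffer-cycle Cy3 intensity for each cluster and is averaged per switch-domain sequence. Cy3-labelled switching-strand clusters on a modified Illumina MiSeq flow-cell were annealed to 100 nM quencher-labelled ATP aptamer, then imaged in selection buffer and again after 15 min with 500 uM ATP at 22 °C. Five such cycles were run, with NaOH stripping and re-annealing between them, and clusters outside 100-1000 RFU were excluded.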
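Note: ATP exposure 15 min at 22 °C before imaging.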

Point of comparison: CAAACAGGCA, switch fluorescence ratio 1.03 ± 0.041. Against it:
- GTAATTGTAA — within error, 0.984 ± 0.012
- TATGAAGTCG — within error, 0.9937 ± 0.0098
- GGTATTTGGT — within error, 0.988 ± 0.03
- TGGTGCAGCT — within error, 1.005 ± 0.0059
- TGGCTTGTTT — within error, 0.99 ± 0.058
- CAGATGACAG — within error, 0.997 ± 0.012
- GCAATTCAGA — within error, 1.064 ± 0.0099
- GGGGGCATGG — within error, 1 ± 0.02
- AACTCGGGGG — within error, 0.999 ± 0.027
- GGGTTGAGGT — within error, 0.9843 ± 0.0092
- GCTAGGGTGG — within error, 0.994 ± 0.018
- GGGGGAATGG — within error, 1.11 ± 0.17
- TTGGTTGTGT — within error, 1.01 ± 0.015
- ACGGCAACAT — higher, 1.31 ± 0.1
- ATCGGATGTA — within error, 1.016 ± 0.0084
- TTGGGTTTG — lower, 0.964 ± 0.011
- TGTTAAAAAT — within error, 1.01 ± 0.029
- GCAGTGGGGA — within error, 1 ± 0.031
- AATGGGATGT — within error, 0.981 ± 0.017
- ATATCCTTGG — within error, 0.984 ± 0.026
- TAAATTGTCG — within error, 0.994 ± 0.053
- TTTTTCGTGG — within error, 1.01 ± 0.022
- TCATCATGTT — within error, 1.01 ± 0.043
- AAGCGGGTGG — within error, 1.05 ± 0.028
- CATCGATTGC — the same, 1.03 ± 0.013
- AAATTGGGTT — lower, 0.9768 ± 0.0091
- ATTGATGGGG — within error, 0.976 ± 0.042
- GTAGAGCGGG — within error, 0.9889 ± 0.0042
- TTGGGGCGCG — within error, 0.989 ± 0.051
- TGGGGTTTGG — within error, 0.984 ± 0.036
- TTAGGGTGGG — within error, 1.01 ± 0.053
- AAGGCTAAGC — within error, 1.024 ± 0.0026
- GAAGTGTGGG — within error, 0.962 ± 0.03
- TAACGGTTTT — within error, 1.01 ± 0.033
- GGGTAAGATG — within error, 0.992 ± 0.016
- ATTGCCGGAG — within error, 0.999 ± 0.037
- GCCGGGGTGA — within error, 1.04 ± 0.043
- AATGTTAGGA — within error, 0.974 ± 0.017
- GTTCAAATAG — within error, 0.9884 ± 0.0095
- TTATTGTTGG — lower, 0.974 ± 0.014
- TCGGACTCTT — within error, 1.01 ± 0.024
- AGGATTGGGG — within error, 1 ± 0.043
- TGCCACGCTC — within error, 1.06 ± 0.029
- AAAATAGATT — the same, 1.032 ± 0.0078
- TGCCATGACG — lower, 0.936 ± 0.046
- AACGCTTCAC — higher, 1.65 ± 0.054
- ATTCTCGTTA — within error, 0.996 ± 0.0053
- GGTTAAGGTC — within error, 1 ± 0.029
- AGATCAGGAT — within error, 1.02 ± 0.012
- CGGTTGTGGG — within error, 0.996 ± 0.018
- CTTGAAGGGG — within error, 0.999 ± 0.036
- GTTTGGTGAG — within error, 1.01 ± 0.021
- CGCGCCCCTT — higher, 1.13 ± 0.015
- ATAGAATTGT — within error, 0.9803 ± 0.0091
- TGAGTTATCG — within error, 0.968 ± 0.033
- ACGTTATTTT — higher, 1.126 ± 0.0061
- TTGCCGGGCA — within error, 0.987 ± 0.032
- AAGTAGTTTT — within error, 0.985 ± 0.024
- GGGGACCAAC — the same, 1.03 ± 0.021
- TTTAATAGCT — within error, 1 ± 0.04
- CGAAGCAGCG — higher, 1.4 ± 0.044
- CCGTTTGGTC — within error, 1.02 ± 0.019
- CATGGTGCCC — the same, 1.03 ± 0.026
- GCAGAGGGTG — within error, 1.13 ± 0.086
- CAAGTAGGTG — the same, 1.03 ± 0.015
- TTATATCTAC — within error, 1.004 ± 0.0045
- GGGGGTATGT — within error, 0.997 ± 0.02
- TACTGGGGAC — the same, 1.03 ± 0.035
- TTTAACAGTT — within error, 1.01 ± 0.051
- TAGGTCTGGG — within error, 1.01 ± 0.036
- GTTGGCATGG — within error, 1.025 ± 0.0044
- ATTTGATTCG — within error, 1.008 ± 0.0087
- GAACAACATG — the same, 1.03 ± 0.051
- TTGGCGGCTA — within error, 0.982 ± 0.024
- TAGGGGGTAC — within error, 1.31 ± 0.58
- CATGCCGGGA — within error, 1.22 ± 0.38
- ACAGACCTAA — higher, 1.14 ± 0.013
- AAATGCCAGG — within error, 1.08 ± 0.032
- CTAAAAAATT — within error, 1.01 ± 0.022
- GCCTGTAGGA — within error, 1.01 ± 0.015
- GAGGGTTCCG — within error, 1.01 ± 0.026
- TTCGTACTAT — within error, 0.993 ± 0.039
- AAGCGGAAGG — within error, 1.05 ± 0.02
- GGTGATAGTT — within error, 0.994 ± 0.017
- CACACAAAAT — within error, 0.977 ± 0.014
- TGCTTTACAT — the same, 1.03 ± 0.014
- CACGGGGGA — within error, 0.974 ± 0.025
- AAGTGGGAAT — within error, 1.02 ± 0.013
- GGGTGTTCTG — within error, 1.01 ± 0.018
- AGCCTTTCGT — within error, 1.01 ± 0.054
- ATAAAGATGG — lower, 0.95924 ± 0.00085
- GTGTGCGCGT — within error, 0.983 ± 0.025
- CGAGTAGTAG — the same, 1.03 ± 0.059
- TTTAATGGAA — within error, 0.988 ± 0.012
- TTTAGGGGCG — the same, 1.03 ± 0.1
- ATTGCATAGG — within error, 0.9951 ± 0.0021
- ATAATATTTG — within error, 0.985 ± 0.015
- GGGCAGCCTT — within error, 0.99337 ± 0.0002
- TGAGTTGGTT — within error, 0.973 ± 0.026
- AAGGATGGCC — within error, 1.01 ± 0.021
- CGGGGTATGG — within error, 1 ± 0.011
- ATAACGATCT — within error, 1.04 ± 0.022
- ACCCATCTGT — within error, 0.979 ± 0.013
- CCAGGCAAGC — higher, 2.46 ± 1.3
- ATCGAGGGA — within error, 0.995 ± 0.061
- TGCTCCGTCG — higher, 1.2 ± 0.039
- TTGGGAAAGA — within error, 1.21 ± 0.34
- TGCATTCGTT — within error, 1.008 ± 0.009
- AATCGCGGCC — the same, 1.032 ± 0.0085
- GCAAAATCTG — within error, 1.04 ± 0.06
- AGTTGAGCAG — within error, 1.02 ± 0.021
- GATATTTAGG — within error, 1.02 ± 0.038
- TTAGTGGGGA — within error, 1.01 ± 0.039
- TTGATACCAG — within error, 0.982 ± 0.013
- TCGTGTTGTT — within error, 0.969 ± 0.021
- TCGTATCATT — within error, 0.976 ± 0.02
- AAAGGAAAGG — within error, 0.992 ± 0.014
- CTATTGGGAT — lower, 0.98078 ± 0.00046
- CGGGGGTACG — within error, 1.02 ± 0.074
- GGGTTCTATT — within error, 1 ± 0.014
- TTACAAGTAT — the same, 1.03 ± 0.021
- GCGCTGGTTT — within error, 0.99 ± 0.034
- CCATTGTAAG — within error, 1.02 ± 0.05
- GCGGCTGGTT — within error, 0.981 ± 0.05
- TCTGACGTA — within error, 1.04 ± 0.0091
- TCGGGGCCTC — within error, 1.04 ± 0.024
- CGAAATTACG — within error, 1.04 ± 0.021
- TAGAGGAG — within error, 1.01 ± 0.05
- AAGTAGCTAT — within error, 1.01 ± 0.043
- TGTACGTTGG — within error, 1.26 ± 0.37
- GAAAGTGCAT — within error, 0.999 ± 0.042
- TGGGGAGCAT — within error, 1.01 ± 0.044
- TGTCGTCGGG — within error, 0.995 ± 0.026
- TTTCAGCTGG — within error, 0.997 ± 0.027
- ATTGAATGTG — lower, 0.973 ± 0.013
- GAGGAAGTCT — the same, 1.03 ± 0.026
- AAAATGGGGG — within error, 1 ± 0.03
- AGTCGTGGGC — within error, 0.98 ± 0.041
- CGTAATGCCT — the same, 1.03 ± 0.098
- AGGAGATAAA — within error, 0.983 ± 0.015
- GAGATGGGGT — within error, 0.995 ± 0.016
- TCAGACTACT — within error, 1.02 ± 0.021
- AAGTACGGTG — higher, 1.19 ± 0.089
- TGGTTCGTCT — within error, 0.955 ± 0.058
- GGAGTTCGTT — within error, 1.09 ± 0.052
- ACTACGTGGG — within error, 1.0708 ± 0.00037
- TTTTAGGAT — within error, 1.004 ± 0.0021
- GGGCCATCGT — within error, 0.993 ± 0.026
- AATATTTGAG — within error, 0.998 ± 0.02
- GGAGGGACTT — within error, 1.39 ± 0.68
- GGGACCGTGC — within error, 1.07 ± 0.096
- AGGGGAGTTT — within error, 1 ± 0.041
- TGTTTGTTTG — within error, 1 ± 0.036
- GCTGGTTTTG — lower, 0.9716 ± 0.004
- TCCACCCTT — the same, 1.03 ± 0.013
- GCGGAAGGGT — within error, 1 ± 0.04
